# Results reported in patent publication US20180086849A1 (Hoffmann-La Roche, published 2018).
# T1: human CEA (Carcinoembryonic antigen) on cells (human, UniProt P06731 35-685)
# T1 sequence (looked up): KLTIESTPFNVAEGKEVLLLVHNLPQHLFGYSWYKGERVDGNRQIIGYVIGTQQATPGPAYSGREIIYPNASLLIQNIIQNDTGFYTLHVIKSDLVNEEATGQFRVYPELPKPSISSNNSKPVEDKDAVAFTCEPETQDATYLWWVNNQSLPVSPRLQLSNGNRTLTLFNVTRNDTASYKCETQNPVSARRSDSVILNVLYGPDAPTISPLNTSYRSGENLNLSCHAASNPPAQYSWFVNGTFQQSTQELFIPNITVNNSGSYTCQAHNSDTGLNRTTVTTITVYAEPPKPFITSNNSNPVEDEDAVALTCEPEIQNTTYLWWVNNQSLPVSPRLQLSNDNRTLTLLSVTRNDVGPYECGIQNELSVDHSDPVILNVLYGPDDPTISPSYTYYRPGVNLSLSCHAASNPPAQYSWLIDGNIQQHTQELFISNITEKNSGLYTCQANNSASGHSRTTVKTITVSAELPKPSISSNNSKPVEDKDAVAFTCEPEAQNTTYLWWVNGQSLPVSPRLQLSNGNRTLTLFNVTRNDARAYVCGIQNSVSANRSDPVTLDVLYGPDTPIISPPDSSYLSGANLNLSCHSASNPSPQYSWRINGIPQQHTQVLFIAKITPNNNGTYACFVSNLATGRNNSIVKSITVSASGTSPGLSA
# B1: 2+1 IgG Crossfab, inverted; CL/CH1 exchange (CH1A1A/V9), anti-CEA/anti-huCD3 (bispecific antibody)
# chain 1: QVQLVQSGAEVKKPGASVKVSCKASGYTFTEFGMNWVRQAPGQGLEWMGWINTKTGEATYVEEFKGRVTFTTDTSTSTAYMELRSLRSDDTAVYYCARWDFAYYVEAMDYWGQGTTVTVSSASTKGPSVFPLAPSSKSTSGGTAALGCLVKDYFPEPVTVSWNSGALTSGVHTFPAVLQSSGLYSLSSVVTVPSSSLGTQTYICNVNHKPSNTKVDKKVEPKSCDKTHTCPPCPAPEAAGGPSVFLFPPKPKDTLMISRTPEVTCVVVDVSHEDPEVKFNWYVDGVEVHNAKTKPREEQYNSTYRVVSVLTVLHQDWLNGKEYKCKVSNKALGAPIEKTISKAKGQPREPQVCTLPPSRDELTKNQVSLSCAVKGFYPSDIAVEWESNGQPENNYKTTPPVLDSDGSFFLVSKLTVDKSRWQQGNVFSCSVMHEALHNHYTQKSLSLSPGK
# chain 2: DIQMTQSPSSLSASVGDRVTITCKASAAVGTYVAWYQQKPGKAPKLLIYSASYRKRGVPSRFSGSGSGTDFTLTISSLQPEDFATYYCHQYYTYPLFTFGQGTKLEIKRTVAAPSVFIFPPSDEQLKSGTASVVCLLNNFYPREAKVQWKVDNALQSGNSQESVTEQDSKDSTYSLSSTLTLSKADYEKHKVYACEVTHQGLSSPVTKSFNRGEC
# chain 3: DIQMTQSPSSLSASVGDRVTITCRASQDIRNYLNWYQQKPGKAPKLLIYYTSRLESGVPSRFSGSGSGTDYTLTISSLQPEDFATYYCQQGNTLPWTFGQGTKVEIKSSASTKGPSVFPLAPSSKSTSGGTAALGCLVKDYFPEPVTVSWNSGALTSGVHTFPAVLQSSGLYSLSSVVTVPSSSLGTQTYICNVNHKPSNTKVDKKVEPKSC
# chain 4: not shown
# B2: 2+1 IgG Crossfab, inverted; CL/CH1 exchange (LC007/V9), anti-MCSP/anti-huCD3 (bispecific antibody)
# chain 1: DIVLTQSPSSLSASLGDRVTISCSASQGIRNYLNWYQQRPDGTVKLLIYYTSSLHSGVPSRFSGSGSGTDYSLTISNLEPEDIATYYCQQYSKLPWTFGGGTKLEIKRTVAAPSVFIFPPSDEQLKSGTASVVCLLNNFYPREAKVQWKVDNALQSGNSQESVTEQDSKDSTYSLSSTLTLSKADYEKHKVYACEVTHQGLSSPVTKSFNRGEC
# chain 2: EVQLQESGPGLVKPSQSLSLTCSVTGYSITSGYYWNWIRQFPGNKLEWMGYITYDGSNNYNPSLKNRISITRDTSKNQFFLKLNSVTTEDTATYYCADFDYWGQGTTLTVSSASTKGPSVFPLAPSSKSTSGGTAALGCLVKDYFPEPVTVSWNSGALTSGVHTFPAVLQSSGLYSLSSVVTVPSSSLGTQTYICNVNHKPSNTKVDKKVEPKSCDKTHTCPPCPAPEAAGGPSVFLFPPKPKDTLMISRTPEVTCVVVDVSHEDPEVKFNWYVDGVEVHNAKTKPREEQYNSTYRVVSVLTVLHQDWLNGKEYKCKVSNKALGAPIEKTISKAKGQPREPQVCTLPPSRDELTKNQVSLSCAVKGFYPSDIAVEWESNGQPENNYKTTPPVLDSDGSFFLVSKLTVDKSRWQQGNVFSCSVMHEALHNHYTQKSLSLSPGK
# chain 3: B1 chain 3
# chain 4: not shown
# B3: 2+1 IgG Crossfab, inverted; VL/VH exchange (CH1A1A/V9), anti-CEA/anti-huCD3 (bispecific antibody)
# chain 1: EVQLVESGGGLVQPGGSLRLSCAASGYSFTGYTMNWVRQAPGKGLEWVALINPYKGVSTYNQKFKDRFTISVDKSKNTAYLQMNSLRAEDTAVYYCARSGYYGDSDWYFDVWGQGTLVTVSSASVAAPSVFIFPPSDEQLKSGTASVVCLLNNFYPREAKVQWKVDNALQSGNSQESVTEQDSKDSTYSLSSTLTLSKADYEKHKVYACEVTHQGLSSPVTKSFNRGEC
# chain 2: not shown
# chain 3: B1 chain 1
# chain 4: B1 chain 2
# B4: 1+1 IgG-Crossfab light chain fusion (CH1A1A/V9), anti-CEA/anti-huCD3 (bispecific antibody)
# chain 1: B1 chain 3
# chain 2: DIQMTQSPSSLSASVGDRVTITCKASAAVGTYVAWYQQKPGKAPKLLIYSASYRKRGVPSRFSGSGSGTDFTLTISSLQPEDFATYYCHQYYTYPLFTFGQGTKLEIKRTVAAPSVFIFPPSDEQLKSGTASVVCLLNNFYPREAKVQWKVDNALQSGNSQESVTEQDSKDSTYSLSSTLTLSKADYEKHKVYACEVTHQGLSSPVTKSFNRGECGGGGSGGGGSGGGGSGGGGSEVQLVESGGGLVQPGGSLRLSCAASGYSFTGYTMNWVRQAPGKGLEWVALINPYKGVSTYNQKFKDRFTISVDKSKNTAYLQMNSLRAEDTAVYYCARSGYYGDSDWYFDVWGQGTLVTVSSASVAAPSVFIFPPSDEQLKSGTASVVCLLNNFYPREAKVQWKVDNALQSGNSQESVTEQDSKDSTYSLSSTLTLSKADYEKHKVYACEVTHQGLSSPVTKSFNRGEC
# chain 3: not shown
# chain 4: DKTHTCPPCPAPEAAGGPSVFLFPPKPKDTLMISRTPEVTCVVVDVSHEDPEVKFNWYVDGVEVHNAKTKPREEQYNSTYRVVSVLTVLHQDWLNGKEYKCKVSNKALGAPIEKTISKAKGQPREPQVCTLPPSRDELTKNQVSLSCAVKGFYPSDIAVEWESNGQPENNYKTTPPVLDSDGSFFLVSKLTVDKSRWQQGNVFSCSVMHEALHNHYTQKSLSLSPGK
# B5: 2+1 IgG Crossfab; VH/VL exchange (LC007/V9), anti-MCSP/anti-huCD3 (bispecific antibody)
# chain 1: not shown
# chain 2: B2 chain 1
# chain 3: DIQMTQSPSSLSASVGDRVTITCRASQDIRNYLNWYQQKPGKAPKLLIYYTSRLESGVPSRFSGSGSGTDYTLTISSLQPEDFATYYCQQGNTLPWTFGQGTKVEIKSSASTKGPSVFPLAPSSKSTSGGTAALGCLVKDYFPEPVTVSWNSGALTSGVHTFPAVLQSSGLYSLSSVVTVPSSSLGTQTYICNVNHKPSNTKVDKKVEPKSCGGGGSGGGGSEVQLQESGPGLVKPSQSLSLTCSVTGYSITSGYYWNWIRQFPGNKLEWMGYITYDGSNNYNPSLKNRISITRDTSKNQFFLKLNSVTTEDTATYYCADFDYWGQGTTLTVSSASTKGPSVFPLAPSSKSTSGGTAALGCLVKDYFPEPVTVSWNSGALTSGVHTFPAVLQSSGLYSLSSVVTVPSSSLGTQTYICNVNHKPSNTKVDKKVEPKSCDKTHTCPPCPAPEAAGGPSVFLFPPKPKDTLMISRTPEVTCVVVDVSHEDPEVKFNWYVDGVEVHNAKTKPREEQYNSTYRVVSVLTVLHQDWLNGKEYKCKVSNKALGAPIEKTISKAKGQPREPQVCTLPPSRDELTKNQVSLSCAVKGFYPSDIAVEWESNGQPENNYKTTPPVLDSDGSFFLVSKLTVDKSRWQQGNVFSCSVMHEALHNHYTQKSLSLSPGK
# chain 4: B3 chain 1
# B6: 2+1 IgG Crossfab, inverted; CL/CH1 exchange (LC007/anti-CD3), anti-MCSP/anti-huCD3 (bispecific antibody)
# chain 1: B2 chain 1
# chain 2: B2 chain 2
# chain 3: QAVVTQESALTTSPGETVTLTCRSSTGAVTTSNYANWVQEKPDHLFTGLIGGTNKRAPGVPARFSGSLIGDKAALTITGAQTEDEAIYFCALWYSNLWVFGGGTKLTVLSSASTKGPSVFPLAPSSKSTSGGTAALGCLVKDYFPEPVTVSWNSGALTSGVHTFPAVLQSSGLYSLSSVVTVPSSSLGTQTYICNVNHKPSNTKVDKKVEPKSC
# chain 4: not shown
# B7: 2+1 IgG Crossfab; CL/CH1 exchange (LC007/anti-CD3), anti-MCSP/anti-huCD3 (bispecific antibody)
# chain 1: B2 chain 1
# chain 2: B2 chain 2
# chain 3: B6 chain 3
# chain 4: not shown
# Legend:
# Experiment in all cases: cell-based or functional assay
# [1] = target: T1, human CEA (Carcinoembryonic antigen) on …
# [2] = target: T2, human MCSP (Melanoma-associated Chondroitin Sulfate Proteoglycan) on cells (human, UniProt Q6UVK1 30-2322)
# T2 sequence (Q6UVK1 30-2322): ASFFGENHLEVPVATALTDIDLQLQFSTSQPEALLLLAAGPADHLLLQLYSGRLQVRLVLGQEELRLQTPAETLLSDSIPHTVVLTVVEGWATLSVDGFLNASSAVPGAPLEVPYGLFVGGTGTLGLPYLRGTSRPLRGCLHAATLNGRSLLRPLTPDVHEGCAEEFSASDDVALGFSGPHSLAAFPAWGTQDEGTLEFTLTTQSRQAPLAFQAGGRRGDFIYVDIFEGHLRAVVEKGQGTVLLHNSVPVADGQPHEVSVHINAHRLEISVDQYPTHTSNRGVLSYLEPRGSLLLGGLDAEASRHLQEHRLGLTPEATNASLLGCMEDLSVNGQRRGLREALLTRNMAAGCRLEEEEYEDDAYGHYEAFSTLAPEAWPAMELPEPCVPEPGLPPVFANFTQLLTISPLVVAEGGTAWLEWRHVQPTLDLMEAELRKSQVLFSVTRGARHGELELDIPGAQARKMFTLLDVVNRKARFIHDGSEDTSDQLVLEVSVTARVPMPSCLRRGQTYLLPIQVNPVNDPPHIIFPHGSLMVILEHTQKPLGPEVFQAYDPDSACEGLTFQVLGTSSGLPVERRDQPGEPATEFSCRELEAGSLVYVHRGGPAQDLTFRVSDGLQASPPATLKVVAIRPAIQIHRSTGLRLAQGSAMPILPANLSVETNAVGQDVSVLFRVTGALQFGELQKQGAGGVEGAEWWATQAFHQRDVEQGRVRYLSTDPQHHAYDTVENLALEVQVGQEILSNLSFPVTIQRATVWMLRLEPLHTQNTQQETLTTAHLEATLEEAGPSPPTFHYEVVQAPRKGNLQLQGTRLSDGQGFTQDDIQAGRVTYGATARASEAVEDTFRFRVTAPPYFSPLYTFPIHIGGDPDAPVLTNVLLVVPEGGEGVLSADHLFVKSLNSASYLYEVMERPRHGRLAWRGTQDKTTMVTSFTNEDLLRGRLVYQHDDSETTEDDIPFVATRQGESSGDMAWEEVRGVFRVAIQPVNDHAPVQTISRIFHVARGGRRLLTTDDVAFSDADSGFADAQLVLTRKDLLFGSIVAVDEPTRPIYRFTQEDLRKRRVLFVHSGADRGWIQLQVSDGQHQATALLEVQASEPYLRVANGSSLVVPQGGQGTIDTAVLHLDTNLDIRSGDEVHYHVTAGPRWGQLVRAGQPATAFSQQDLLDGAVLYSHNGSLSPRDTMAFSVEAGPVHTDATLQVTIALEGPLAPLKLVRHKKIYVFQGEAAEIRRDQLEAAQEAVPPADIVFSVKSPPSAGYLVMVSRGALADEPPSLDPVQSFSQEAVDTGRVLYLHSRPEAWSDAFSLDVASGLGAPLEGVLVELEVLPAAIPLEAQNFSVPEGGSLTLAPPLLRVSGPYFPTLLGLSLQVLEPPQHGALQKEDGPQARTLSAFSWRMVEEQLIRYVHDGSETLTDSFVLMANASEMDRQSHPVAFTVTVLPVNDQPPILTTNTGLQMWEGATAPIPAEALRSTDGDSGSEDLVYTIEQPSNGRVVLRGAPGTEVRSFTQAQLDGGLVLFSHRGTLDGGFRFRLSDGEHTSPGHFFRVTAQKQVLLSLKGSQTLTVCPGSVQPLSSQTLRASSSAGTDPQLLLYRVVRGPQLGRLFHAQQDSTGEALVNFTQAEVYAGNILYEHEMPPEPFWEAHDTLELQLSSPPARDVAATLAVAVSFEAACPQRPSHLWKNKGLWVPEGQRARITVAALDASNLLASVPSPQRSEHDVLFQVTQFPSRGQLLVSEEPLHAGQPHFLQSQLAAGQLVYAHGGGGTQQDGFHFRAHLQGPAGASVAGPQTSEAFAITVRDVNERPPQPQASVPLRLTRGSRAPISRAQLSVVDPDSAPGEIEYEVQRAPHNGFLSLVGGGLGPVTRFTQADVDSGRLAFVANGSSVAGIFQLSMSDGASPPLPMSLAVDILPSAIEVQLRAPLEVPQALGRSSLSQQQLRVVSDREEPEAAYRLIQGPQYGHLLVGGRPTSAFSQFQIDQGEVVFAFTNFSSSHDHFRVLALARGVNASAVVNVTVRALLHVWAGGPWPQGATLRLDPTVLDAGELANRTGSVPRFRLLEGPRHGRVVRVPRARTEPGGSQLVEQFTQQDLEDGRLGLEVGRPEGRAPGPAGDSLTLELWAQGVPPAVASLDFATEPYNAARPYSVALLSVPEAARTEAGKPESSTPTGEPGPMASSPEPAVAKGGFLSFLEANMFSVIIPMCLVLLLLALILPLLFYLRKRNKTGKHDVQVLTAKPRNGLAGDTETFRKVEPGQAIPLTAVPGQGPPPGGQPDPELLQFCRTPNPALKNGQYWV
# [3] = target: T2, human MCSP (Melanoma-associated …); remark: listed apart in the source
Binder,"EC50 of T cell-mediated killing (LDH release) of LS-174T cells, human PBMCs, 28 h [1] [nM]","EC50 of T cell-mediated killing (LDH release) of MKN-45 cells, human PBMCs, 28 h [1] [nM]","EC50 [pM] of T cell-mediated killing (LDH release) of MV-3 cells, human PBMCs, about 24 h [2] [pM]","EC50 [pM] of T cell-mediated killing (LDH release) of WM266-4 cells, human PBMCs, about 24 h [2] [pM]",further results
B1,0.673,0.115,–,–,–
B2,–,–,4.1,3.7,–
B3,0.955,0.243,–,–,–
B4,1.56,0.213,–,–,"EC50 of T cell-mediated killing (LDH release) of MC38-huCEA cells, human PBMCs, 24 h [1]: ~3.2 nM"
B5,–,–,10,12.4,"EC50 of T cell-mediated killing (LDH release) of MV-3 cells, human PBMCs, 21 h [3]: 0.0092 nM; EC50 of T cell-mediated killing (LDH release) of WM266-4 cells, human PBMCs, 21 h [3]: 0.0331 nM"
B6,–,–,3,7.1,–
B7,–,–,11,11.3,–
